The text below walks through data of patent US20240026407A1, “MODIFICATION OF SAPONINS” (GLAXOSMITHKLINE BIOLOGICALS SA, priority 2020, published 2024).

Holding throughout (assay type): biochemical, Quillaja saponaria
A short description of test [1]: Experiment 4-1: screening of glucosidases for deglycosylation with purified QS-18 (0.04 mg/ml) at pH 7.5 and room temperature. Particulars: pH 7.5, room temperature, 20 h, clarified E. coli lysate, QS-18 2150 to QS-21 1988 by LCMS/MS. The method, boiled down: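 Deglycosylation measured by LC-MS/MS as % conversion after 20 h room-temperature incubation of QS-18 phenyl fraction (0.04 mg/ml final) with polymyxin B/lysozyme lysates, pH 7.5 phosphate, of E. coli BL21(DE3) expressing each enzyme; MeCN quench. Positives exceeded negative control by >3 S.D.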

A short description of test [2]: Experiment 4-4: screening of glucosidases for deglycosylation of QS-18 in crude bark extract (1 in 20 dilution) to QS-21. Conditions: CBE 1 in 20 dilution, pH 6, 25 degC, 18 hours; % conversion of Middle Peak by UV HPLC. Put shortly: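 Clarified glucosidase lysates were incubated with pH 6 crude bark extract (1 in 20) in potassium phosphate buffer pH 6 for 18 h at 25 °C with shaking, then quenched with MeCN. UV HPLC with MS/MS-supported peak identity; activity is % conversion of the extract's Middle Peak (QS-18 family) toward the QS-21 peak.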

Test [3] can be described thus: Experiment 5-2: screening of additional glucosidases for deglycosylation with QS-18 in crude bark extract (80%) at pH 6 and 35 deg C. Particulars: CBE 80%, pH 6, 35 deg C, 18 hours; UV HPLC. The method, boiled down: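 Deglycosylation of QS-18 was monitored by UV HPLC after MeCN/AcOH quench with hexanophenone. The reaction ran 18 hours at 35 deg C, shaking, combining clarified pH 6 lysate with crude bark extract neutralised to pH 6 by NaOH.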

Test [4] in a line: Experiment 4-2: screening of glucosidases for deglycosylation with purified QS-18 (1 mg/ml) at pH 6 and 30 deg C. Particulars: pH 6, 30 degC, 18 hrs, clarified lysate, LCMS/MS. Put shortly:
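Enzyme activity derived from LC-MS/MS analysis after MeCN quench. Substrate QS-18 (1 mg/ml final) was exposed overnight (18 h, 30 °C, pH 6 phosphate buffer) to clarified lysates containing candidate glucosidases.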

A short description of test [5]: Experiment 5-3: screening of additional glucosidases for deglycosylation with QS-18 in treated bark extract (80%) at pH 6 and 35 deg C. Particulars: TBE 80% (QS-21 approx. 4 g/L), pH 6, 35 deg C; UV HPLC. How it is done: Experiment 5-1 was repeated, replacing CBE with Treated Bark Extract (TBE) at pH 6. TBE was prepared from CBE by PVPP treatment and concentration, to provide TBE with a QS-21 concentration of approximately 4 g/L. TBE was adjusted to pH 6 by dropwise addition of 2M NaOH with stirring.

The nature of test [6]: Experiment 4-3: screening of glucosidases for deglycosylation with QS-18 in crude bark extract (1 in 2000 dilution) at pH 7 and 30 deg C. Particulars: CBE 1 in 2000 dilution, pH 7, 30 degC, 1 h; % conversion of QS-18 by LCMS/MS.
Test [7] in a line: Experiment 5-1: screening of additional glucosidases for deglycosylation with purified QS-18 (0.04 mg/ml) at pH 7.5 and 30 deg C. Conditions: pH 7.5, 30 degrees C, 18 hours, LCMS/MS. How it is done:
The 94 additional genes, together with positive control (DNA encoding SEQ ID No. 262) and negative control, were transformed, expressed, lysed and reacted in the same manner as described above for Experiment 4-1, except the reaction was incubated at 30 degrees C. for 18 hours.
Samples were analysed by LCMS/MS according to the procedure in Experiment 4-1.

B1: 262 (protein, listed as Modestobacter marinus)
chain: MNPASSTRTDTMTDTTARTDSRLTDALAALSLEQKVQLLTGRDFWNTWPIEEIGLRRILVSDGPSGVRGEVWDERDPSLNLPSATALASAWDPDIARRYGAAAAVEARRKGVDVVLGPTINLHRSPLGGRHFEAFSEDPVLTAELAAAYVTGVQDNGVGATPKHYVANDFETDRFTVDVRADERTLRELYLLAFEKAVTEARAWLVMSAYNGINGATATENDLLETPLNSEWGFDGVVVSDWTAVRSLESARSSQDLVMPGPVGPWGDALVEAVRTGAIDESVVDRKVLRILTLAQRVGALEGSPAIDPVWVEDGVALAREAAVEGTVLLENRDELPWDATSLRKVAVIGNNAAAARTQGGGSATVLPEYTVSPLDGVRAALPDAEVSYSLGAVVQDGLVELPLAELTNPVTGGPGLRARFLTADGAELFGEDRRKSVLVYFGGDAPIAAAATYELTARWTPTESQTVRLGFALIGAAQLYVDGELLVESDLQPSGTDLGAAFMNPLTASAEVELVAGKPVDVRLVHDLSAKEGFAAHALFLQLGTEPAEVDEDALIAEAAEAAEAADVVLVVVGTNSIVESEGYDRESLSLPGRQDDLVRAVVAANPRTVVLVNAGAPVLLPWRDDVAALLLGWFGGQEFGNAVADVLLGVAEPGGRLPTTWPAAEADVPVLSCTPVDGVVEYTEGIHIGYRAWLRSGATPAYWFGSGQGYTCVELTGVEAPSRARPGEIVTVSVEVANRGERDGKQVVQVYAEKPDSTVDRPVRWLVGSAPVRVPAGQTAQVEVAVPTRYLAHWAGGWQYEPGVYRLRVGTTAVELPLETTLEVSA
On to B1, for which, in test [1], the “Expt 4-1 % conv” value came out at 99.5%. The “Expt 4-4 % conv” value in test [2] was found to be 68.6%. Moreover, in test [3], the “Experiment 5-2 % conv” value was determined as 5.5%. Also, the “Expt 4-2 % conv” value in test [4] is reported as 97.9%. Besides, the “Experiment 5-3 % conv” value in test [5] was determined as 8.5%. Moreover, the “Expt 4-3 % conv” value in test [6] is reported as 99.7%. The “Experiment 5-1 % conv” value in test [7] is given as 98.7%.
